In US20240190996A1 (Regeneron, published 2024):
Each block holds one binder with its values, some of them ahead of it.

Key:
[1] = molecular target: T1, human coagulation factor XI (hFXI), plasma-derived (ERL) (human, UniProt P03951 19-625); assay: SPR (Biacore), mAb captured on anti-hFc, antigen injected, 25C
T1 construct: also called hFXI (ERL); human FXI
Description: (§1) Then, all FXI solutions were injected on Biacore 8K at 30 μL/min for 180 seconds and dissociation was monitored for 10 minutes.

[2] = molecular target: T1, human coagulation factor XI (hFXI), …; assay: SPR (Biacore), mAb captured on anti-hFc, antigen injected, 37C
Description: as §1

[3] = molecular target: T2, human activated factor XI (hFXIa), plasma-derived (ERL) (human, UniProt P03951 19-387; P03951 388-625); assay: SPR (Biacore), mAb captured on anti-hFc, antigen injected, 25C
T2 construct: After cleavage each subunit is two disulfide-linked chains; also called hFXIa (ERL); human FXIa
T2 sequence (P03951 19-387 limits assumed, chain 1 of 2): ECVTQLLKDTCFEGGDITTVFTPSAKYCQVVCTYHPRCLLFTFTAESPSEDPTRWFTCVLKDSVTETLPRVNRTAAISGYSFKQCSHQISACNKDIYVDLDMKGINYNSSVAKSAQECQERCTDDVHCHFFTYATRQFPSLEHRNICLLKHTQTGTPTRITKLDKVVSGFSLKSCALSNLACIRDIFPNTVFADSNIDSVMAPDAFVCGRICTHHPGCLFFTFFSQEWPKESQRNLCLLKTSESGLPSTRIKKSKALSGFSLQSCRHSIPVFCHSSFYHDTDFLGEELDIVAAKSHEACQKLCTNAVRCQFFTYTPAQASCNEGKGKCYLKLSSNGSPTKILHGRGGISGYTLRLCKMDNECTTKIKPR
T2 sequence (P03951 388-625 limits assumed, chain 2 of 2): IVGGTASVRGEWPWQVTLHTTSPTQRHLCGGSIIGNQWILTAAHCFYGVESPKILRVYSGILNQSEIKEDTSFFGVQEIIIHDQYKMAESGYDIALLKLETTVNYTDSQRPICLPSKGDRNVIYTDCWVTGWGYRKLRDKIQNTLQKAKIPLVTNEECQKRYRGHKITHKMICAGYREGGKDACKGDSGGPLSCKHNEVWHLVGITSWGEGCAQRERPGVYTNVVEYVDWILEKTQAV
Description: as §1

[4] = molecular target: T2, human activated factor XI (hFXIa), …; assay: SPR (Biacore), mAb captured on anti-hFc, antigen injected, 37C
Description: as §1

[5] = molecular target: T3, hFXI.mmh (REGN3848) (human, UniProt P03951 19-625); assay: SPR (Biacore), mAb captured on anti-hFc, antigen injected, 25C
T3 construct: Human FXI with a C-terminal myc-myc-hexahistidine tag; also called human FXI.mmh; recombinant human FXI
T3 sequence (P03951 other isoform, or with tags, fused parts or gaps limits assumed): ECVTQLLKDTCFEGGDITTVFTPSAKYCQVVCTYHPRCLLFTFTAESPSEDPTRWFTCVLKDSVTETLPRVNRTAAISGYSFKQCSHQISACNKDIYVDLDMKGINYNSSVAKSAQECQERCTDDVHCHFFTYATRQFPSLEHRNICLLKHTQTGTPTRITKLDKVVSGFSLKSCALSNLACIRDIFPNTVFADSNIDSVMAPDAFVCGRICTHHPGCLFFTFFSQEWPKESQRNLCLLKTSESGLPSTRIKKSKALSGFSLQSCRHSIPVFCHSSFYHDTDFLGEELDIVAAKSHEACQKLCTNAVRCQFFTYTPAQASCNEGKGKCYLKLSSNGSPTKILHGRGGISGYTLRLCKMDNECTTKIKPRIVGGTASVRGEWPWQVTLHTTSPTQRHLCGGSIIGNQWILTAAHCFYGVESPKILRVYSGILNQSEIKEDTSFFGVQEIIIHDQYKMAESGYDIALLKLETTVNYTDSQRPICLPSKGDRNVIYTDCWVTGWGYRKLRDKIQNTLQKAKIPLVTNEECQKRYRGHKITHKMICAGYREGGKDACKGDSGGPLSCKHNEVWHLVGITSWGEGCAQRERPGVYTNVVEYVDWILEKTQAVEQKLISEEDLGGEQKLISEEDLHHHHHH
Description: as §1

[6] = molecular target: T3, hFXI.mmh (REGN3848); assay: SPR (Biacore), mAb captured on anti-hFc, antigen injected, 37C
Description: as §1

[7] = molecular target: T4, mfFXI.mmh (REGN3883) (cynomolgus monkey (Macaca fascicularis), UniProt A0A2K5VVW4 19-624); assay: SPR (Biacore), mAb captured on anti-hFc, antigen injected, 25C
T4 construct: also called monkey FXI.mmh; recombinant cynomolgus monkey FXI; not shown: mmH tag
T4 sequence (A0A2K5VVW4 entry or part of it): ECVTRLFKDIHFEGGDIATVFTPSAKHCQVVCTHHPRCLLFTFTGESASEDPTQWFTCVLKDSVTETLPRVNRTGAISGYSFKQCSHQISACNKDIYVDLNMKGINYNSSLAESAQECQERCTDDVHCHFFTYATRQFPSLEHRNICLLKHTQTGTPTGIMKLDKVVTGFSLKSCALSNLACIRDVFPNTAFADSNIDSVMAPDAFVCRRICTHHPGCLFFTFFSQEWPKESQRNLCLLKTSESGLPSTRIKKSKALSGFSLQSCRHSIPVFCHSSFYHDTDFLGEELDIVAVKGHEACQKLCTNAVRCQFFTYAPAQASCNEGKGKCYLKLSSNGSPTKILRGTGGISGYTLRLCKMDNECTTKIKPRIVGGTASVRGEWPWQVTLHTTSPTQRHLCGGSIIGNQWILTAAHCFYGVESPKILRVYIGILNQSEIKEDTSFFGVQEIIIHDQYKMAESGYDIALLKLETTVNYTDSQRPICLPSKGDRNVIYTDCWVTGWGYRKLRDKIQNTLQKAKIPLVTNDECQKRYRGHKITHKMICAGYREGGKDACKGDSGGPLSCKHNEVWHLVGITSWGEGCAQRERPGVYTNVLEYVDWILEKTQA

[8] = molecular target: T4, mfFXI.mmh (REGN3883); assay: SPR (Biacore), mAb captured on anti-hFc, antigen injected, 37C
Description: as §1

[9] = molecular target: T1, human coagulation factor XI (hFXI), …; assay: SPR (Biacore), mAb captured on anti-hFc, antigen injected, 25C; 25 C
Description: as §1

[10] = molecular target: T1, human coagulation factor XI (hFXI), …; assay: SPR (Biacore), REGN7508 captured on anti-hFcG, antigen injected, 25C, pH 7.4
Description: (§2) Each concentration was tested in duplicate.
(§3) Specific binding signals were obtained by a double referencing procedure and plotted as SPR sensorgrams. […] The kinetic parameters were obtained by globally fitting these specific binding signals to a 1:1 binding model with mass transport limitation. The equilibrium dissociation constant (KD) was calculated from the ratio of the dissociation rate constant to the association rate constant (KD=kd/ka).

[11] = molecular target: T2, human activated factor XI (hFXIa), …; assay: as above
Description: as §2, §3

[12] = molecular target: T3, hFXI.mmh (REGN3848); assay: as above
Description: as §2, §3

[13] = molecular target: T4, mfFXI.mmh (REGN3883); assay: as above
Description: as §2, §3

[14] = molecular target: T5, mFXI.mmH (mouse, UniProt Q91Y47 19-624); assay: SPR (Biacore), REGN7508 captured on anti-hFcG, mFXI.mmH injected, 25C, pH 7.4
T5 construct: also called recombinant mouse FXI; not shown: mmH tag
T5 sequence (Q91Y47 19-624): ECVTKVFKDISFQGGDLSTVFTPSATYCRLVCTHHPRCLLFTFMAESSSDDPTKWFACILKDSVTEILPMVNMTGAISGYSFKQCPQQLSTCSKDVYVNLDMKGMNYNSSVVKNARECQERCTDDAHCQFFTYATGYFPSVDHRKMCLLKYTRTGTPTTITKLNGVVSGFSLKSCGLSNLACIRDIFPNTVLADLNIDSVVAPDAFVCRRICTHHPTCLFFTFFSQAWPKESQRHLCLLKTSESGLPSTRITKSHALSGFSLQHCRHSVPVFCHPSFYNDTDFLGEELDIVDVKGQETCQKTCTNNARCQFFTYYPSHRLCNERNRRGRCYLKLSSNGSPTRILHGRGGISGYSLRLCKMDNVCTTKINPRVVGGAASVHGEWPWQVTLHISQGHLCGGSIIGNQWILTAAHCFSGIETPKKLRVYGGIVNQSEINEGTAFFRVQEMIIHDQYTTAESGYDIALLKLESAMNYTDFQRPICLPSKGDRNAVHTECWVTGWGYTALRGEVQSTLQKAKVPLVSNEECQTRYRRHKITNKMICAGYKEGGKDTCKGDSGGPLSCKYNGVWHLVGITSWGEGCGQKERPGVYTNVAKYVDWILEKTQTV

[15] = molecular target: T6, rbFXI.mmH (rabbit, UniProt G1SSQ6 19-623); assay: SPR (Biacore), REGN7508 captured on anti-hFcG, rbFXI.mmH injected, 25C, pH 7.4
T6 construct: also called recombinant rabbit FXI; not shown: mmH tag
T6 sequence (G1SSQ6 entry or part of it): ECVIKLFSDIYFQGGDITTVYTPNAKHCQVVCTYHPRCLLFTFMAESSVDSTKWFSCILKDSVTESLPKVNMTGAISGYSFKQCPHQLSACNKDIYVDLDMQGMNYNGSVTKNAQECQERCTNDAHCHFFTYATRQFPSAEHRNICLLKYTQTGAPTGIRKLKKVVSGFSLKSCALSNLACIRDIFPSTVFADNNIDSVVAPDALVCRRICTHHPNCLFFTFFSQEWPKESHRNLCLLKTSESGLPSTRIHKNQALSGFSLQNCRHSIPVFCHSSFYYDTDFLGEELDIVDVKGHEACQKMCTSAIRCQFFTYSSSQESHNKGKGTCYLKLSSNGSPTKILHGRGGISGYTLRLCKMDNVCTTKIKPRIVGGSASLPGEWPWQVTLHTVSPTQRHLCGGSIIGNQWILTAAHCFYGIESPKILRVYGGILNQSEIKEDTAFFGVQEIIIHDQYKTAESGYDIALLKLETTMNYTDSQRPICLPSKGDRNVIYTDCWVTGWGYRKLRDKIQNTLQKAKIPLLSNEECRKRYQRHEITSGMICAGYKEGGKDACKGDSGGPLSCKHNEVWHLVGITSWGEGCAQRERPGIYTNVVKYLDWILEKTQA

[16] = molecular target: T1, human coagulation factor XI (hFXI), …; assay: cell-based or functional assay
[17] = molecular target: T2, human activated factor XI (hFXIa), …; assay: cell-based or functional assay

T1 sequence (P03951 19-625): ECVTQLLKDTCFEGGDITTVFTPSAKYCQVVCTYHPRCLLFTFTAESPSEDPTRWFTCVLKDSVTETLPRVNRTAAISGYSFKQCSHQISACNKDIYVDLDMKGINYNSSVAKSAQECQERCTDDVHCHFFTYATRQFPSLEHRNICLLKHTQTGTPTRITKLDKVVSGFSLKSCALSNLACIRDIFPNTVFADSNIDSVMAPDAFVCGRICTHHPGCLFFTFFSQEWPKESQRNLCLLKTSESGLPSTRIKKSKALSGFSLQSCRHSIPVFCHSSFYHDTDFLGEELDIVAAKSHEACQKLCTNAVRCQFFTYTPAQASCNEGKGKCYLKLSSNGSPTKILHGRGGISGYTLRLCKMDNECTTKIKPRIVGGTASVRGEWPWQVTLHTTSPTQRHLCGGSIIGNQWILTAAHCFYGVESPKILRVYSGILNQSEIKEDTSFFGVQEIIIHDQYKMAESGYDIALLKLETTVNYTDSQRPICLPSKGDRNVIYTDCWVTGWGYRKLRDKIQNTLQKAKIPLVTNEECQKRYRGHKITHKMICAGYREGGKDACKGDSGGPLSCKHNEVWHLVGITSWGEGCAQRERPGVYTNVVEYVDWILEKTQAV

koff [1]: ≤ 1e-05 s⁻¹
kon [1]: 2.2e+06 M⁻¹ s⁻¹
t½ [1]: ≥ 19.2 h
Kd [2]: ≤ 0.00309 nM
koff [2]: ≤ 1e-05 s⁻¹
kon [2]: 3.24e+06 M⁻¹ s⁻¹
t½ [2]: ≥ 19.2 h
Kd [3]: ≤ 0.0311 nM
koff [3]: ≤ 1e-05 s⁻¹
kon [3]: 321000 M⁻¹ s⁻¹
t½ [3]: ≥ 19.2 h
Kd [4]: 0.256 nM
koff [4]: 0.000121 s⁻¹
kon [4]: 475000 M⁻¹ s⁻¹
t½ [4]: 1.58 h
Kd [5]: ≤ 0.00534 nM
koff [5]: ≤ 1e-05 s⁻¹
kon [5]: 1.87e+06 M⁻¹ s⁻¹
t½ [5]: ≥ 19.2 h
Kd [6]: 0.0326 nM
koff [6]: 8.86e-05 s⁻¹
kon [6]: 2.71e+06 M⁻¹ s⁻¹
t½ [6]: 2.17 h
Kd [7]: ≤ 0.00481 nM
koff [7]: ≤ 1e-05 s⁻¹
kon [7]: 2.08e+06 M⁻¹ s⁻¹
t½ [7]: ≥ 19.2 h
Kd [8]: 0.0435 nM
koff [8]: 0.000111 s⁻¹
kon [8]: 2.56e+06 M⁻¹ s⁻¹
t½ [8]: 1.73 h
Kd [9]: ≤ 0.00454 nM
Kd [10]: 0.003 nM
koff [10]: 9.36e-06 s⁻¹
kon [10]: 3.12e+06 M⁻¹ s⁻¹
t1/2 [10]: 20.6 h
Kd [11]: 0.0102 nM
koff [11]: 3.61e-05 s⁻¹
kon [11]: 3.55e+06 M⁻¹ s⁻¹
t1/2 [11]: 5.33 h
Kd [12]: 0.00807 nM
koff [12]: 2.7e-05 s⁻¹
kon [12]: 3.34e+06 M⁻¹ s⁻¹
t1/2 [12]: 7.13 h
Kd [13]: 0.00373 nM
koff [13]: 9.62e-06 s⁻¹
kon [13]: 2.58e+06 M⁻¹ s⁻¹
t1/2 [13]: 20 h
binding result [14]: no binding (tested: 50 nM)
binding result [15]: no binding (tested: 250 nM)
B1: REGN7508 (antibody, human IgG4 S228P, kappa, V domains shown)
VH: QVQLVESGGGLVKPGGSLRLSCAASGFTFSDYSMNWIRQAPGKGLEWISYISFSGNSIYYADSVKGRFTISRDNAKNSLYLQMNSLRVEDTAIYYCTSRDWGYAFDIWGQGTMVTVSS
VL: DIQMTQSPSFLSASLGDRVTITCQASQDISNYLNWYQVKPGKAPKLLIYDASNLETGVPSRFSGSGSGTDFTFTISSLQPEDIATYFCQQYDNLPYIFGQGTKLEIKR
notes: also called Subject mAb [REGN7508]; subject anti-FXI mAb

IC50 [M], FXI, 0.13% plasma (chromogenic FXa generation, BIOPHEN Factor XIa kit) [16]: 1.9e-10 M
IC50 [M], FXIa, 0.13% plasma (chromogenic FXa generation, BIOPHEN Factor XIa kit) [17]: > 1e-08 M
Kd [1]: ≤ 0.119 nM
koff [1]: ≤ 1e-05 s⁻¹
kon [1]: 83800 M⁻¹ s⁻¹
t½ [1]: ≥ 19.2 h
Kd [2]: 0.0365 nM
koff [2]: ≤ 1e-05 s⁻¹
kon [2]: 274000 M⁻¹ s⁻¹
t½ [2]: ≥ 19.2 h
Kd [5]: ≤ 0.116 nM
koff [5]: ≤ 1e-05 s⁻¹
kon [5]: 86200 M⁻¹ s⁻¹
t½ [5]: ≥ 19.2 h
Kd [6]: 0.387 nM
koff [6]: 8.77e-05 s⁻¹
kon [6]: 226000 M⁻¹ s⁻¹
t½ [6]: 2.19 h
Kd [7]: ≤ 0.0644 nM
koff [7]: ≤ 1e-05 s⁻¹
kon [7]: 155000 M⁻¹ s⁻¹
t½ [7]: ≥ 19.2 h
Kd [8]: 0.268 nM
koff [8]: 8.6e-05 s⁻¹
kon [8]: 321000 M⁻¹ s⁻¹
t½ [8]: 2.24 h
B2: REGN9932 (antibody, human IgG4 S228P, kappa, V domains shown)
VH: QVQLVESGGGVVQPGRSLRLSCAASGFTFSNYEMHWVRQTPGKGLEWVALIWYDGSNKYSGDSVKGRFTISRDNSKSTLYLQMNSLTAEDTAVYYCTGITGTEDAFDVWGQGTMVTVSS
VL: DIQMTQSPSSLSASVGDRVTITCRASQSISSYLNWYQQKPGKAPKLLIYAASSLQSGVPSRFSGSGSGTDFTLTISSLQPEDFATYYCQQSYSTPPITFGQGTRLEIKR
notes: also called anti-FXI mAb [REGN9932]
